Data: patent US20080050375A1 (Eli Lilly, published 2008)

Columns and labels:
[1] = target: human TGF-beta 1 (R&D Systems, Cat # 240-B/CF) (human) (UniProt P01137); experiment: cell-based or functional assay
[2] = target: human TGF-beta 1 (R&D Systems, Cat # 240-B/CF) (human) (UniProt P01137); experiment: Biacore SPR, calculated koff/kon
[3] = target: T1, human TGF-beta 3 (RDI, Cat # RDI-1036/CF) (human) (UniProt P10600); experiment: ratio of Biacore Kd for TGF-β3 to Kd for TGF-β1
T1 sequence (looked up): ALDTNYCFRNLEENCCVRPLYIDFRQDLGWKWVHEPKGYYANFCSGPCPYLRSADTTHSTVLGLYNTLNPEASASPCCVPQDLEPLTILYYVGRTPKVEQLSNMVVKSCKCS

[4] = target: human TGF-beta 1 (R&D Systems, Cat # 240-B/CF) (human) (UniProt P01137); experiment: Biacore SPR, mAb captured on Protein A, TGF-beta 1 injected
[5] = target: T1, human TGF-beta 3 (RDI, Cat # RDI-1036/CF) (human); experiment: Biacore SPR, equilibrium fit, mAb captured on Protein A, TGF-β3 injected
[6] = target: human TGF-beta 1 (R&D Systems, Cat # 240-B/CF) (human) (UniProt P01137); experiment: Biacore SPR, mAb captured on Protein A, 5 nM ligand injected; stoichiometry from captured signals
latent TGF-beta 1 = target: T2, latent TGF-beta 1 (UniProt P01137 30-390, limits assumed); experiment: as above
T2 construct: Latent complex (pro-peptide with mature TGF-beta 1); also called Latent TGF-β1; latent form of TGF-beta 1
T2 sequence (P01137 30-390 limits assumed): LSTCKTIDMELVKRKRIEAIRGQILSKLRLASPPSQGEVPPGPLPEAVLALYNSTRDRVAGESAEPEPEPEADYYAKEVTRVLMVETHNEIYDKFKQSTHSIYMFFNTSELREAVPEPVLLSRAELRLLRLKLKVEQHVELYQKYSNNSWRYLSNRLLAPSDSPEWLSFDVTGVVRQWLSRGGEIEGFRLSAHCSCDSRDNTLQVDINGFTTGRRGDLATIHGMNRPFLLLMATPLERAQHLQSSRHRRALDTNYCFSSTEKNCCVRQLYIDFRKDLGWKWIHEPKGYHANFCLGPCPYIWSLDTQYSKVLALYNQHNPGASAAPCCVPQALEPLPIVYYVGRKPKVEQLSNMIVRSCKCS
Experimental: (§1) BIAcore methods are used to determine the ability of invention mAb compositions to bind other entities, specifically the latent form of TGF-beta 1 or TGF-beta 3. All measurements are performed at room temperature. Samples are dissolved in HBS-EP buffer (150 mM sodium chloride, 3 mM EDTA, 0.01% (w/v) surfactant P-20, and 10 mM HEPES, pH7.4). Recombinant Protein A is immobilized on all four flow cells of a CM4 sensor chip at a level of 400-450 response units (RUs) using an amine coupling kit.
(§2) Binding is evaluated using multiple analytical cycles. Each cycle is performed at a flow rate of 100 μL/minute consisting of the following steps: injection of 15 μL of an antibody binding composition at 1 μg/mL, injection of 250 μL of either 5 nM TGF-beta 1, 5 nM latent TGF-beta 1, or 5 nM TGF-beta 3 followed by a short delay (5 min) for dissociation, and regeneration using two injections of 50 μL of 10 mM glycine hydrochloride, pH1.5. The amount of signal after capturing first the Mab, and then the ligand, are determined using the instrument control software. Since the signal is proportional to the mass of protein captured, the stoichiometry of the captured ligand is readily calculable (Table 4).

[7] = target: human TGF-beta 1 (R&D Systems, Cat # 240-B/CF) (human) (UniProt P01137); experiment: calculated from KinExA Kd and kon
[8] = target: human TGF-beta 1 (R&D Systems, Cat # 240-B/CF) (human) (UniProt P01137); experiment: KinExA 3000, equilibrium, Fab in solution
[9] = target: human TGF-beta 1 (R&D Systems, Cat # 240-B/CF) (human) (UniProt P01137); experiment: KinExA 3000, Fab in solution, antigen on beads
[10] = target: T3, human TGF-beta 1 (R&D Systems, Cat # 240-B/CF) (human, UniProt P01137 279-390); experiment: cell-based or functional assay
[11] = target: T3, human TGF-beta 1 (R&D Systems, Cat # …); experiment: Biacore SPR, calculated koff/kon
Experimental: (§3) Alternate methods of measuring kinetic constants are known, for example: affinity of a binding composition for human TGF-beta 1 (R&D Systems, Cat #240-B/CF), TGF-beta 2 (RDI, Cat # RDI-1035) and TGF-beta 3 (RDI, Cat # RDI-1036/CF) is measured using a BlAcore® 2000 instrument. The BIAcore® utilizes the optical properties of surface plasmon resonance to detect alteration in protein concentration of interacting molecules within a dextran biosensor matrix. Except as noted, all reagents and materials are purchased from BIAcore® AB (Upsala, Sweden). All measurements are performed at room temperature. Samples are dissolved in HBS-EP buffer (150 mM sodium chloride, 3 mM EDTA, 0.01% (w/v) surfactant P-20, and 10 mM HEPES, pH7.4). Recombinant Protein A is immobilized on all four flow cells of a CM4 sensor chip at a level of 400-450 response units (RUs) using an amine coupling kit.
(§4) Binding is evaluated using multiple analytical cycles. Each cycle is performed at a flow rate of 50 μL/minute and consists of the following steps: injection of 12 μL of an antibody binding composition at 0.5 μg/mL, injection of 250 μL of TGF-beta 1 (starting at 5 nM and using two-fold serial dilutions to 0.13 nM for each cycle, with two injections for each concentration) followed by either a short (5 minutes) or long (120 minutes) delay for dissociation, and regeneration using two injections of 50VL of 10 mM glycine hydrochloride, pH1.5. Association and dissociation rates for each cycle are determined by fitting of the biosensor data using to a simple association model using ClampXP (Center for Biomolecular Interaction Analysis, Univ. of Utah) to extract the kₒₙ and koff rate constants; the equilibrium binding constant Kd is calculated using the relationship Kd=koff/kₒₙ. Model data for invention compositions are in Table 3 shown below.

[12] = target: T4, human TGF-beta 3 (RDI, Cat # RDI-1036/CF) (human, UniProt P10600 301-412); experiment: ratio of Biacore Kd for TGF-β3 to Kd for TGF-β1
T4 construct: Bought recombinant protein; also called TGF-β3; TGF-p3
T4 sequence (looked up): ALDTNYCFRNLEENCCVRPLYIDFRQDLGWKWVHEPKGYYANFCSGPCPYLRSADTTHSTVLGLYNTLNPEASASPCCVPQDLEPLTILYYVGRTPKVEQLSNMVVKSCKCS
Experimental: (§5) Affinities of binding composition mAbs for TGF-p3 are determined using BIAcore methods. All measurements are performed at room temperature. Samples are dissolved in HBS-EP buffer (150 mM sodium chloride, 3 mM EDTA, 0.01% (w/v) surfactant P-20, and 10 mM HEPES, pH7.4). Recombinant Protein A is immobilized on four flow cells of a CM4 sensor chip at a level of 400-450 response units (RUs) using an amine coupling kit. Binding is evaluated over multiple analytical cycles. Each cycle is performed at a flow rate of 100 μL/minute consisting of the following steps: injection of 15 μL of an antibody binding composition at 0.5 μg/mL, injection of 250 μL of TGF-β3 (starting at 5 nM and using two-fold serial dilutions to 0.13 nM for each cycle, with two injections for each concentration) followed by a short (5 minutes) delay for dissociation, and regeneration using two injections of 50VL of 10 mM glycine hydrochloride, pH1.5.
(§6) Affinities are determined based upon the equilibrium signal as reached at varying TGF-β3 concentrations by measuring the average signal during the last 10 seconds of the TGF-β3 injections, and then fitting the resulting signals at all of the TGF-β3 concentrations to a simple binding equilibrium model in SCRUBBER (Center for Biomolecular Interaction Analysis, Univ. of Utah). Model data determined for tested human mab composition of the invention of Kd and specificity calculated by dividing the Kd for TGF-β3 binding by the Kd for TGF-β1 binding (herein) is shown below in Table 5.

[13] = target: T3, human TGF-beta 1 (R&D Systems, Cat # …); experiment: Biacore SPR, mAb captured on Protein A, TGF-beta 1 injected
Experimental: as §3, §4

[14] = target: T4, human TGF-beta 3 (RDI, Cat # …); experiment: Biacore SPR, equilibrium fit, mAb captured on Protein A, TGF-β3 injected
Experimental: as §5, §6

[15] = target: T3, human TGF-beta 1 (R&D Systems, Cat # …); experiment: Biacore SPR, mAb captured on Protein A, 5 nM ligand injected; stoichiometry from captured signals
Experimental: as §1, §2

[16] = target: T4, human TGF-beta 3 (RDI, Cat # …); experiment: as above
Experimental: as §1, §2

Binder | Fold Improvement in IC50 relative to mAb2471 (HT-2 cell proliferation assay) [1] [fold] | Kd [2] [nM] | Specificity (Kd, β3/Kd, β1) [3] [fold] | koff [4] [s⁻¹] | kon [4] [M⁻¹ s⁻¹] | Kd [5] [nM] | Stoichiometry of ligand binding [6] | Stoichiometry of ligand binding (latent TGF-beta 1) | koff [7] [s⁻¹] | Kd [8] [nM] | kon [9] [M⁻¹ s⁻¹] | Fold Improvement in IC50 relative to mAb2471 (HT-2 cell proliferation assay) [10] [fold] | Kd [11] [nM] | Specificity (Kd, β3/Kd, β1) [12] [fold] | koff [13] [s⁻¹] | kon [13] [M⁻¹ s⁻¹] | Kd [14] [nM] | Stoichiometry of ligand binding [15] | Stoichiometry of ligand binding [16]
mAb C27 (antibody, IgG4, V domains shown) VH: QVQLVQSGAEVKKPGASVKVSCKASGYTFTDYNIHWVRQAPGQGLEWMGYIYPYDGETGYNQKFKSRVTMTTDTSTSTAYMELRSLRSDDTAVYYCARGYRAFEYWGQGTLVTVSS VL: DIQMTQSPSSLSASVGDRVTITCRASSSVPYMHWYQQKPEKAPKSLIYATSNLAFGVPSRFSGSGSGTDFTLTISSLQPEDFATYYCQQWDLNPPAFGQGTKLEIK | 401 | 0.0006 | 3670 | 8e-06 | 1.3e+07 | 2.2 | 1.74 | 0.08 |  |  |  |  |  |  |  |  |  |  | 
Fab C27 (Fab, V domains shown) VH: QVQLVQSGAEVKKPGASVKVSCKASGYTFTDYNIHWVRQAPGQGLEWMGYIYPYDGETGYNQKFKSRVTMTTDTSTSTAYMELRSLRSDDTAVYYCARGYRAFEYWGQGTLVTVSS VL: DIQMTQSPSSLSASVGDRVTITCRASSSVPYMHWYQQKPEKAPKSLIYATSNLAFGVPSRFSGSGSGTDFTLTISSLQPEDFATYYCQQWDLNPPAFGQGTKLEIK |  |  |  |  |  |  |  |  | 1.7e-05 | 0.0042 | 4.1e+06 |  |  |  |  |  |  |  | 
mAb 21D1 (antibody, human IgG4 S228P, kappa, V domains shown, Full-length IgG4 antibody; also called LA307-21D1) VH: QVQLVQSGAEVKKPGASVKVSCKASGYTFTDYNIHWVRQAPGQGLEWMGYIYPYDGETGYNQKFKSRVTMTTDTSTSTAYMELRSLRSDDTAVYYCARGYRWFAYWGQGTLVTVSS VL: DIQMTQSPSSLSASVGDRVTITCRASSSVPYMHWFQQKPGKAPKSLIYATSNPAYGVPSRFSGSGSGTDFTLTISSLQPEDFATYYCQQWDLNPPAFGQGTKLEIKR |  |  |  |  |  |  |  | 0.05 |  |  |  | 107 | < 0.0005 | 9800 | < 6e-06 | 1.3e+07 | 4.9 | 1.29 | 0.16
mAb DM7 (antibody, IgG4, V domains shown) VH: QVQLVQSGAEVKKPGASVKVSCKASGYDFTDYNMHWVRQAPGQGLEWMGYIYPYDGETGYNQKFKSRVTMTTDTSTSTAYMELRSLRSDDTAVYYCARGYRWLYYWGQGTLVTVSS VL: DIQMTQSPSSLSASVGDRVTITCRASSSVSYMHWYQQKPGKAPKPLIYATSNLAKGVPSRFSGSGSGTDFTLTISSLQPEDFATYYCQQWDLNPPAFGQGTKLEIK |  |  |  |  |  |  |  | 0.04 |  |  |  | 140 | < 0.0005 | 2320 | < 7e-06 | 1.3e+07 | 1.16 | 1.23 | 0.54
mAb 23A3 (antibody, IgG4, V domains shown) VH: QVQLVQSGAEVKKPGASVKVSCKASGYDFTDYNMVWVRQAPGQGLEWMGSIYPYDGETGYNQKFKSRVTMTTDTSTSTAYMELRSLRSDDTAVYYCARGYRAFEYWGQGTLVTVSS VL: DIQMTQSPSSLSASVGDRVTITCRASSSVPYMHWYQQKPGKAPKLLIYATSNPAYGVPSRFSGSGSGTDFTLTISSLQPEDFATYYCQQWDLNPPAFGQGTKLEIK |  |  |  |  |  |  |  | 0.07 |  |  |  | 234 | 0.0008 | 1050 | 1e-05 | 1.9e+07 | 0.66 | 1.63 | 1.26
mAb DM4 (antibody, human IgG4 S228P, kappa, V domains shown, Full-length IgG4 antibody; also called LA307-DM4) VH: QVQLVQSGAEVKKPGASVKVSCKASGYDFTDYNIHWVRQAPGQGLEWMGYIYPYDGETGYNQKFKSRVTMTTDTSTSTAYMELRSLRSDDTAVYYCARGYRWLAYWGQGTLVTVSS VL: DIQMTQSPSSLSASVGDRVTITCRASSSVSYMHWYQQKPGKAPKPLIYATSNLAYGVPSRFSGSGSGTDFTLTISSLQPEDFATYYCQQWDLNPPAFGQGTKLEIKR |  |  |  |  |  |  |  | 0.03 |  |  |  | 391 | 0.0009 | 621 | 1.4e-05 | 1.6e+07 | 0.53 | 1.55 | 
